Patent US20170152308A1

target: synthetic peptide of residues 390-414 of TDP-43 with phosphorylation at residues 409/410 (human); test: direct ELISA, coated antigen
Sequence (peptide, as listed by the source): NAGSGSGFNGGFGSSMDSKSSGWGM

| EC50 | Binder |
| --- | --- |
| 0.9 nM | NI-205.14H5 (antibody, human IgG1, V domains shown) VH: EVQLLESGGGLVQPGGSLRLSCAASGFTFRNYAMAWVRQAPGKGLEWVSAIPARGDKTYYADSVRGRFTISRDISKSALYLQMNSLRVEDTAVYYCAKAHHLYNKNFDYWGQGTLVTVSS VL: EIVLTQSPGTLSLSPGETVTLSCRASQSVSSSNLAWYQQKPGQAPRLLIYGASSRATGIPDRFSGRGSGTDFTLTISRLEPEDFAVYYCQHYGTFGQGTKVDIK |
| 49.5 nM | NI-205.21G1 (antibody, human IgG1, V domains shown) VH: QVQLVESGGGVVQPGMSLRLSCAASGFSFSSHGMHWVRQTPGKGLEWLAVISYDASNKSYADSVKGRFTISRDNSKKTLYLQMDSLRVEDTALYYCANAFSSSASGGYWGQGTLVTVSS VL: DVVMTQSPLSLPVTLGQPASISCRSSQSLVHSDGVTYLNWFQQRPGQSPRRLIYKVSNRDSGVPDRFSGSGSGTDFTLEISRVEAEDVGIYYCMQGTHWPPWTFGQGTKVEIK |
| 6.9 nM | NI-205.58E11 (antibody, human IgG1, V domains shown) VH: EVQLLESGGGLVQPGGSLRLSCAASGFTFSSYSMSWVRQAPGKGLEWVATVGYGGTIYYADSVKGRFTISRDNSKNTLYLEMNSLRAEATAVYYCAKANYGGNRFGLDVWGQGTTVTVSS VL: QSALTQPPSASGSPGQSVTISCTGTSSDVGGYNYVSWYQHQPGKAPKLMIYEVSKRPSGVPDRFSGSKSGNTASLTVSGLQAEDEADYYCSSYAGSNNLGVFGTGTEVTVL |
| 16.9 nM | NI-205.68G5 (antibody, human IgG1, V domains shown) VH: QVQLVESGGGVVQPGRSLRLSCAASGFTFSSYGMHWVRQAPGKGLEWVAIIYYDSSQRYYADSVKGRFTISRDNSKNALYLQMNSLRAEDTALYYCARDLPFHYHRSASFAPSDTWGQGTLVTVSS VL: EIVLTQSPGTLSLSPGERATLSCRASQAVTNNYLAWYQQKPGQAPRLLVYAASSRATGIPDRFYGSGSGADFTLTISRLEPEDFAVYYCQQYGTSPITFGQGTRLEIK |
| 5.1 nM | NI-205.8F8 (antibody, human IgG1, V domains shown) VH: EVQLLESGGGLVQPGGSLRLSCAASGYTFSYYAMSWVRQAPGKGLEWVSTIGDSGSTTHYADSVKGRFTISRDNSKSTLYLQMNSLRAEDTAVYYCAKGLGPVAAIGDYWGQGTLVTVSS VL: QSVLTQPPSASGTPGQRVTISCSGSSSNIGSNNVYWYQQLPGTAPKLLVYRNNQRPSGVPDRVSGSKSGSSASLAISGLRSEDEADYYCAAWDDSLRGYVFGTGTKVTVL |

target: synthetic peptide of residues 390-414 of TDP-43 with phosphorylation at residues 409/410 (human); test: direct ELISA, coated antigen; direct ELISA, coated synthetic phospho-409/410 peptide 390-414 (3.3 ug/ml)

| EC50 | Binder |
| --- | --- |
| 4.3 nM | NI-205.36D5 (antibody, human IgG1, V domains shown) VH: QVQLVESGGGVVQPGRSLRLSCAASRFTFSSYGMHWVRQAPGKGLEWVALIYYDATQKYYADSVKGRFTISRDNSKNALYLQMTSLRADDTAVYYCARDLPYHYHRSASFAPADTWGQGTLVTVSS VL: EIVLTQSPGTLSLSPGERATLSCRASQTISNNYLAWYQQKPGQAPRLLVYAASSRATGIPDRFYGSGSGADFTLTISRLEPEDFVVYYCQQYGSSPITFGQGTRLEIK |
